Laboratory results published in paper PMC7347456 (Structure (London, England : 1993), 2020).
Ends that are not written are not given here.

Experiments:
[1] = molecular target: T1, full-length human LRH-1 (Liver Receptor Homolog-1; NR5A2), wild type (human, UniProt O00482 1-541); assay: fluorescence polarisation
[2] = molecular target: full-length human LRH-1 S148R (human, UniProt O00482 1-541, S148R); assay: fluorescence polarisation
[3] = molecular target: full-length human LRH-1 D314R (human, UniProt O00482 1-541, D314R); assay: fluorescence polarisation
full-length human LRH-1 D314R, sequence (O00482 whole entry D314R): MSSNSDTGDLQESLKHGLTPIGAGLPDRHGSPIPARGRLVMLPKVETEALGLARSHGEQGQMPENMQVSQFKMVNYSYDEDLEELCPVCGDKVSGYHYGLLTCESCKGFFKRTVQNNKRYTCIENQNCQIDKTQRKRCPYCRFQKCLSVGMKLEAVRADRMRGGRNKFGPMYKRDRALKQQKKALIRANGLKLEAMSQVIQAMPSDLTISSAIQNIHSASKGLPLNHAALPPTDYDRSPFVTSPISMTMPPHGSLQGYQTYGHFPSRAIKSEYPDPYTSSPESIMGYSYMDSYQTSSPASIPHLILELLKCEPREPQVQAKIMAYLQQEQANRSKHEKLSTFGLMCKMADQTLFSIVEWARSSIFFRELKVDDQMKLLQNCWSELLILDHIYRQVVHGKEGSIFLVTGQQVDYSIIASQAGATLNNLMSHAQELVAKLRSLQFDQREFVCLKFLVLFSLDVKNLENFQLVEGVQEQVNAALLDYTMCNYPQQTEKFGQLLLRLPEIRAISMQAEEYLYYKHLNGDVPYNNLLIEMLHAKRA

[4] = molecular target: full-length human LRH-1 R174D/D314R (human, UniProt O00482 1-541, R174D | D314R); assay: fluorescence polarisation
full-length human LRH-1 R174D/D314R, sequence (O00482 whole entry R174D/D314R): as the sequence (O00482 whole entry D314R) above, with R174D counted along it

[5] = molecular target: full-length human LRH-1 A324R (human, UniProt O00482 1-541, A324R); assay: fluorescence polarisation
full-length human LRH-1 A324R, sequence (O00482 whole entry A324R): as the sequence (O00482 whole entry D314R) above, with R314D, A324R counted along it

[6] = molecular target: T1, full-length human LRH-1 (Liver Receptor …); assay: cross-linking

T1 sequence (O00482 whole entry): as the sequence (O00482 whole entry D314R) above, with R314D counted along it
full-length human LRH-1 S148R, sequence (O00482 whole entry S148R): as the sequence (O00482 whole entry D314R) above, with S148R, R314D counted along it

Binder	Kd [1] [nM]	Kd [2] [µM]	Kd [3] [nM]	Kd [4] [nM]	Kd [5] [nM]	binding result [6]
{FAM}-EEPSLLKKLLLAPA [N-terminally FAM-labeled PGC1α co-regulator peptide (740-EEPSLLKKLLLAPA-753)]	1360	7.03	2280	1720	1510	
EEPSLLKKLLLAPA [PGC1α co-activator peptide (740-EEPSLLKKLLLAPA-753), unlabeled]						binds
